Experimental data taken from patent publication US20240325555A1 (LANOVA MEDICINES, published 2024).
Read-outs that look alike come from different tables or passages of the source.

T1: human LIV-1 (human, UniProt Q13433 29-755)
T1 sequence (looked up): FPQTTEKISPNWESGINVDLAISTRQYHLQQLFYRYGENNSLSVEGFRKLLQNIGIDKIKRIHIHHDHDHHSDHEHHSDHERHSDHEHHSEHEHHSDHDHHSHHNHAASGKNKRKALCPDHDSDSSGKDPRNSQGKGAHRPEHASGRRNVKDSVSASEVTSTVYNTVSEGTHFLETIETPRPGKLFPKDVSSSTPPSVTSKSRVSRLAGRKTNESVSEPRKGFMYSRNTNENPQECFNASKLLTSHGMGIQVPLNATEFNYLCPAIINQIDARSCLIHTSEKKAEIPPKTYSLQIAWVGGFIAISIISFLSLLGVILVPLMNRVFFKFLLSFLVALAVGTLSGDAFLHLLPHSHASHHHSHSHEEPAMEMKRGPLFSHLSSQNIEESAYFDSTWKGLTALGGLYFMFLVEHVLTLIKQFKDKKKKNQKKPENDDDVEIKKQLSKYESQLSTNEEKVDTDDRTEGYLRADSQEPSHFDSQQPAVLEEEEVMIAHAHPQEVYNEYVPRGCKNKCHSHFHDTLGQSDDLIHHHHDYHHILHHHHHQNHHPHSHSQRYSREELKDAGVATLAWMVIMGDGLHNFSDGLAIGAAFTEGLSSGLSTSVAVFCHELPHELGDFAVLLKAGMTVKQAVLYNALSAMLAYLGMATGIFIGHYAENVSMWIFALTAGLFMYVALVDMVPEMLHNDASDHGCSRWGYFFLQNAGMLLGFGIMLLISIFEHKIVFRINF

T2: rat LIV-1 (rat, UniProt Q4V887 21-741)
T2 construct: whole, on cells
T2 sequence (looked up): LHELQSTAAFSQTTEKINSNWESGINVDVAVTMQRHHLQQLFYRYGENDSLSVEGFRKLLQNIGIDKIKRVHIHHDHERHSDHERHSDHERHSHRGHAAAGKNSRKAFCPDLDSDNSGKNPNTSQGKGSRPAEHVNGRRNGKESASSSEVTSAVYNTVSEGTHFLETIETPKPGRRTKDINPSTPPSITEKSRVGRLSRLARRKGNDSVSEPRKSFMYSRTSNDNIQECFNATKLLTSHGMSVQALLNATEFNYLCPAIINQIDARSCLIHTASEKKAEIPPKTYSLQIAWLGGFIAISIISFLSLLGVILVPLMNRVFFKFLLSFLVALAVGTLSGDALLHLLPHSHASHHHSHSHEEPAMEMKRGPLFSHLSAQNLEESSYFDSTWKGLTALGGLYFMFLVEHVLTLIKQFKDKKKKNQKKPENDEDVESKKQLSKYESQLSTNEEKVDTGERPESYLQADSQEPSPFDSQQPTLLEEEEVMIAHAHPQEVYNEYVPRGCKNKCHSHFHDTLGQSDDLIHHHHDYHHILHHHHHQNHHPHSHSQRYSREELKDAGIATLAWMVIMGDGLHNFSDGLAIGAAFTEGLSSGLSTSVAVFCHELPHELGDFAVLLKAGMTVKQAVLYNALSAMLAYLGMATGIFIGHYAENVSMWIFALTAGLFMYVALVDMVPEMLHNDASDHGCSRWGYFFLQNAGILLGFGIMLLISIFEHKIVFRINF

T3: mouse LIV-1 (mouse, UniProt Q8C145 21-765)
T3 construct: whole, on cells
T3 sequence (looked up): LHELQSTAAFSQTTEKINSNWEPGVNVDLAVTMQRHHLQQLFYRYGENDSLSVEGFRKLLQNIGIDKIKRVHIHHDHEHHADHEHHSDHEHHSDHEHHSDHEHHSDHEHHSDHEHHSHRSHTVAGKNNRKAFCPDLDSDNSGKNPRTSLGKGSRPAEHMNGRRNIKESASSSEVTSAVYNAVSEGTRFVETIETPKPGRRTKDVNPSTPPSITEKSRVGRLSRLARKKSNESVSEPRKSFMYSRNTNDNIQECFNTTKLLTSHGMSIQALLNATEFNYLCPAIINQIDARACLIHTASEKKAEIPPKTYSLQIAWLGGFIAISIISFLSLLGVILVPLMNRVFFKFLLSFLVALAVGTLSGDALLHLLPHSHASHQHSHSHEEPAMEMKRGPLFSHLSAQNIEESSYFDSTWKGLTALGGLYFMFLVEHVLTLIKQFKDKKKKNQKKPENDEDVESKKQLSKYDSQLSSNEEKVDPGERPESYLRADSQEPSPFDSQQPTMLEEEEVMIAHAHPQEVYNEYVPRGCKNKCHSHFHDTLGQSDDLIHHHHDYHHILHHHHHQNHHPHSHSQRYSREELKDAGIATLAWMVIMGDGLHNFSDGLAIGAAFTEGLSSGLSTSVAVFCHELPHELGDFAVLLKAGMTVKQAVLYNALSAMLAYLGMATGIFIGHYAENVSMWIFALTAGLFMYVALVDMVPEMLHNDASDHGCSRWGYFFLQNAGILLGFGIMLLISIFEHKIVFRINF

B1: 290F10G10 (antibody, V domains shown)
VH: IQLQQSGAELARPGASVKLSCKASGYTFTSYWIHWVKERPGQGLEWIGTIYPGDGDTRSTQKFKDKATVTAEKSSSTVYMQLSSLASEDSAVYYCTRSLIHDDYDKYYFDYWGQGTTLTVSS
VL: DIQMTQSPSSLSASLGGKVTITCKARQDINKYIAWYQHKPGKGPRLLIHYTSILQPGIPSRFSGSGSGRDYSFSISNLEPEDIATYYCLQYDYFFTFGSGTKLEIK
notes: Tested as chimeric antibody
B2: 124H4D11.p2.z4 (antibody, V domains shown)
VH: QVQLVQSGAEVVKPGASVKVSCKASGFNIKDYYMHWVRQAPGQGLEWIGWIDPENDDTEYDPKFQGRVTMTADTSTSTVYMELSSLRSEDTAVYYCAARYYAFDYWGQGTMVTVSS
VL: DVLMTQSPLSLPVTLGQPASISCRSSQSIVHSNANTYLEWYLQRPGQSPRLLIYKVSNRFSGVPDRFSGSGSGTDFTLKISRVEAEDVGVYYCFQGSQVPPTFGQGTKLEIK
B3: 290F10G10.p1.Z2 (antibody, V domains shown)
VH: EVQLVQSGAEVKKPGASVKVSCKASGYTFTSYWIHWVRQAPGQGLEWMGTIYPGDADTRSTQKFKDRVTMTADTSTSTVYMELSSLRSEDTAVYYCARSLIHDDYDKYYFDYWGQGTTVTVSS
VL: DIQMTQSPSSLSASVGDRVTITCKARQDINKYIAWYQQKPGKAPKLLIHYTSILQPGIPSRFSGSGSGRDYTFTISSLQPEDIATYYCLQYDYFFTFGGGTKVEIK
notes: also called 290F10G10.z2; LM-001

Tests used:
[1] = molecular target: T1, human LIV-1; test: cell-based or functional assay
[2] = molecular target: T1, human LIV-1; test: cell-based or functional assay; remark: listed apart in the source
[3] = molecular target: T1, human LIV-1; test: cell-based or functional assay; remark: listed apart in the source
[4] = molecular target: T1, human LIV-1; test: FACS, HEK293/H_LIV-1 cells
In short: (§1)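 HEK293 cells over-expressing human or cyno LIV-1 incubated with chimeric Abs (from 100 nM, 5-fold dilutions, 8 points) for 60 min at 4 °C, then fluorescent secondary antibody 30 min at 4 °C; washes in 2% FBS/PBS. Binding read by flow cytometry; EC50 from the titration curve.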

[5] = molecular target: T2, rat LIV-1; test: FACS, HEK293/Rat_LIV-1 cells
Procedure: (§2) Humanized antibodies 5D6B10.z7, 124H4D11.p2.z4 and 290F10G10.p1.z2 were selected for further testing. In this example, FACS cross binding of these selected antibodies to LIV-1 of different species were assessed using flow cytometry.
(§3) Cell based binding of optimal leads to different species LIV-1 expressing cells were assessed using flow cytometry. Briefly, the cells were incubated with optimal leads (from 100 nM, 6 folds dilution, 8 points). After incubation at 4° C. for 60 minutes, the cells were washed with 2% FBS/PBS buffer twice, then stained with fluorescent conjugated secondary antibody at 4° C. for 30 minutes. After that the cells were washed twice and resuspended in 80 μL of 2% FBS/PBS buffer. Fluorescent signal of binding was detected using Agilent. The EC50 was calculated using the GraphPad Software (LaJolla, CA).

[6] = molecular target: rhesus LIV-1 (rhesus, UniProt H9FSJ2 30-735); test: FACS, HEK293/Rhe_LIV-1 cells
rhesus LIV-1, sequence (H9FSJ2 entry or part of it): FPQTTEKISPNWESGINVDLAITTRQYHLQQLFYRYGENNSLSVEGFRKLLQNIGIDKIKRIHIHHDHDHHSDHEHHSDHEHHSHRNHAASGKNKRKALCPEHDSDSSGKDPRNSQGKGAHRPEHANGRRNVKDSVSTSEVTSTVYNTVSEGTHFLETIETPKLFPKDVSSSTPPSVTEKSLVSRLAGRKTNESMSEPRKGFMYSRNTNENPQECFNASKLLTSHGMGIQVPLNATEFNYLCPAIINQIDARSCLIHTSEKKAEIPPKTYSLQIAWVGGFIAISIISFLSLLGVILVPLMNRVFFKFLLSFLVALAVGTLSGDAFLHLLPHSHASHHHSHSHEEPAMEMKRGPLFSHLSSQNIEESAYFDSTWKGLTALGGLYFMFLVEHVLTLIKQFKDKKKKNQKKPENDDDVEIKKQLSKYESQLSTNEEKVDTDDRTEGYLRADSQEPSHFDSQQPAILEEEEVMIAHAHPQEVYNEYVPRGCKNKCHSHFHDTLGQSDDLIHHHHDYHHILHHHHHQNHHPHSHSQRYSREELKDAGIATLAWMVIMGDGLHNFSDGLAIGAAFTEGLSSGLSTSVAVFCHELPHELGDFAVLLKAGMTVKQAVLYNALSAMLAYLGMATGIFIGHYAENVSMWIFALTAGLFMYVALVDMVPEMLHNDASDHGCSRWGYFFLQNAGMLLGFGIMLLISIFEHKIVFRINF
Procedure: as §2, §3

[7] = molecular target: T4, cynomolgus LIV-1 (cynomolgus, UniProt A0A2K5WH46 30-741); test: FACS, HEK293/Cyno_LIV-1 cells
In short: as §1

[8] = molecular target: T4, cynomolgus LIV-1; test: FACS, HEK293/Cyno_LIV-1 cells; remark: listed apart in the source
Procedure: as §3
Target sequence in this assay (A0A2K5WH46 entry or part of it): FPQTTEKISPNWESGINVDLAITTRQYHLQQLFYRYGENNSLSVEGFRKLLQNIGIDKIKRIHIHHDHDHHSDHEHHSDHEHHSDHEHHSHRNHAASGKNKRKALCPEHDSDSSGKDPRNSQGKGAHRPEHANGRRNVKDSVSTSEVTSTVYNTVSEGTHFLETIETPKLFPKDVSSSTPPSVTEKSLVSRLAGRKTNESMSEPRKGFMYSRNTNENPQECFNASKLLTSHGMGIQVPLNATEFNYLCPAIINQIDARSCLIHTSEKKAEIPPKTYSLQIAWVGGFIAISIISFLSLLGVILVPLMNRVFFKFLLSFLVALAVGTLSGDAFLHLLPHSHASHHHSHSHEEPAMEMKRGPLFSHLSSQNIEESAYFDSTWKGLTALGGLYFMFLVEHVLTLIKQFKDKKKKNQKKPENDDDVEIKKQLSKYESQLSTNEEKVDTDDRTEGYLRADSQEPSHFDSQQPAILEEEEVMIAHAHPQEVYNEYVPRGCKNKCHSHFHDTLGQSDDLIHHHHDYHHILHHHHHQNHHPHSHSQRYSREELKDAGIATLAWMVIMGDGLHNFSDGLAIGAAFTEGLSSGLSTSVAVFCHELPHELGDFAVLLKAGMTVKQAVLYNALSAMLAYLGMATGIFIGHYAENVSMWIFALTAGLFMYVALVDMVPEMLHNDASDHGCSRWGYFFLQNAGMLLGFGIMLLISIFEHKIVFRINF

[9] = molecular target: T3, mouse LIV-1; test: FACS, HEK293/Mouse_LIV-1 cells
Procedure: as §2, §3

[10] = molecular target: T1, human LIV-1; test: cell-based or functional assay; remark: listed apart in the source
[11] = molecular target: T1, human LIV-1; test: FACS, HEK293/H_LIV-1 cells; remark: listed apart in the source
In short: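 HEK293 cells expressing human LIV-1 incubated with humanized antibodies (from 100 nM, 6-fold dilutions, 8 points) at 4 °C for 60 min. Bound antibody detected with a fluorescent secondary antibody (4 °C, 30 min) by flow cytometry.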

[12] = molecular target: T1, human LIV-1; test: FACS, HEK293/H_LIV-1 cells; remark: listed apart in the source
Procedure: (§4) Cell based binding of ADC and naked of ADC on human LIV-1 expressing cells were assessed using flow cytometry. Briefly, HEK293/H_LIV-1, both low- and high-expressing H-LIV1-positive cell lines were incubated with ADC and naked of ADC (from 100 nM, 6 folds dilution, 8 points), respectively. After incubation at 4° C. for 60 minutes, the cells were washed with FACS buffer twice, then stained with fluorescent conjugated secondary antibody at 4° C. for 30 minutes. After that the cells were washed twice and analyzed by flow cytometry.

[13] = molecular target: T1, human LIV-1; test: FACS, BT20/H_LIV-1 Low cells
Procedure: as §4

[14] = molecular target: T4, cynomolgus LIV-1; test: FACS, HEK293/Cyno_LIV-1 cells; remark: listed apart in the source
Target sequence in this assay (A0A2K5WH46 entry or part of it): as above

[15] = molecular target: T1, human LIV-1; test: FACS, BT20/H_LIV-1 High cells
Procedure: as §4

[16] = molecular target: T4, cynomolgus LIV-1; test: FACS, cyno LIV-1 cells
Target sequence in this assay (A0A2K5WH46 entry or part of it): as above

[17] = molecular target: T1, human LIV-1; test: FACS, human LIV-1 cells
Procedure: In this example, cell based binding of humanized antibodies (hu Abs) on human LIV-1-expressing cells were assessed using flow cytometry.
as §4, with “hu-Abs” for “ADC and naked of ADC”, “the HEK293/H_LIV-1 cells” for “HEK293/H_LIV-1, both low- and high-expressing H-LIV1-positive cell lines”, “points).” for “points), respectively.”

Binder | Top (MFI) [5] | EC50 [6] | Top (MFI) [6] | EC50 [8] | Top (MFI) [8] | Top (MFI) [9] | Internalization EC50 [10] | Internalization Top (MFI) [10] | EC50 [12] | Top (MFI) [12] | EC50 [13] | Top (MFI) [13] | EC50 [15] | Top (MFI) [15] | also measured
B1 | 6820 MFI | 0.22 nM | 5270 MFI | 0.26 nM | 1560 MFI | 5550 MFI |  |  |  |  |  |  |  |  | ADCC reporter EC50 [1]: 0.4 nM; ADCC reporter Top (RFU) [1]: 177000 RFU; Internalization EC50 [2]: 3.5 nM; Internalization Top (RFU) [2]: 298000 RFU; Cell viability(%) [3]: 3.46%; Cytotoxicity IC50 [3]: 1.33 nM; EC50 [4]: 0.38 nM; Top (MFI) [4]: 9570 MFI; EC50 [5]: 72.2 nM; EC50 [7]: 0.53 nM; Top (MFI) [7]: 2940 MFI; EC50 [9]: 51.1 nM
B2 | 106 MFI | 0.07 nM | 5420 MFI | 0.09 nM | 1420 MFI | 107 MFI | 5.6 nM | 139000 MFI | 0.16 nM | 19900 MFI | 0.17 nM | 3460 MFI | 0.15 nM | 20800 MFI | EC50 [11]: 0.13 nM; Top (MFI) [11]: 16900 MFI; binding result [5]: no binding (tested: 100 nM); EC50 [14]: 0.13 nM; Top (MFI) [14]: 8840 MFI; binding result [9]: no binding (tested: 100 nM)
B3 |  |  |  |  |  |  | 5 nM | 112000 MFI | 0.7 nM | 17800 MFI | 1.43 nM | 3400 MFI | 1.06 nM | 18800 MFI | EC50 [16]: 0.38 nM; Top (MFI) [16]: 7470 MFI; EC50 [17]: 0.24 nM; Top (MFI) [17]: 7660 MFI
